Experimental data as given in article PMC4833811.

Legend:
[1] = target: T1, GST-14-3-3γ:γ homodimer (UniProt P61981)
T1 sequence: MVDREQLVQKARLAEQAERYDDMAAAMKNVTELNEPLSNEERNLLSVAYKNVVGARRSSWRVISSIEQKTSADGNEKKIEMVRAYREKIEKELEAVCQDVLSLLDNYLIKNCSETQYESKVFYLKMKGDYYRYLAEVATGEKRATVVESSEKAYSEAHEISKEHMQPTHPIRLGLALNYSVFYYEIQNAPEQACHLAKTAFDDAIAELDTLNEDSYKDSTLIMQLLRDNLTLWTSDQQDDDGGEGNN

[2] = target: 14-3-3ε:ζ heterodimer (UniProt P62258)
Sequence of UniProt P62258 (P62258 whole entry, chain 1 of 2): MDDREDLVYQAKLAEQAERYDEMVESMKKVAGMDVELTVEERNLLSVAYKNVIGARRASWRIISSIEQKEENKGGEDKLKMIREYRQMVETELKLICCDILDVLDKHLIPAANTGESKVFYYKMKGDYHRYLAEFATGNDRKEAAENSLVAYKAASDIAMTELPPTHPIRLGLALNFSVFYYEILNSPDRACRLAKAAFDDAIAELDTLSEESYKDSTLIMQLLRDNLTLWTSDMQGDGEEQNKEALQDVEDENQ
Sequence of UniProt P62258 (P62258 other isoform, or with tags, fused parts or gaps, chain 2 of 2): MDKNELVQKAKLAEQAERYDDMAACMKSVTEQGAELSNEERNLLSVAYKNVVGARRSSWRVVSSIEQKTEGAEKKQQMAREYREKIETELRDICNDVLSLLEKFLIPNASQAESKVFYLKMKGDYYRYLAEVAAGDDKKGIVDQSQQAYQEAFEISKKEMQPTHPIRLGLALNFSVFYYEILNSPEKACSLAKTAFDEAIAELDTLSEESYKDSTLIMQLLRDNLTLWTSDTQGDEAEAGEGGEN

A relative activation of bTH-pS19 activity (maximal, 12.5–100 µg/ml thrombin-cleaved 14-3-3, BH4 as cofactor); highest activation [1] of 4.4 fold and a relative activation of bTH-pS19 activity (maximal, 12.5–100 µg/ml thrombin-cleaved 14-3-3, BH4 as cofactor); lowest activation [2] of 3.3 fold were found for “bovine tyrosine hydroxylase phosphorylated by PRAK on Ser19 (from UniProt P17289 1-491) (enzyme)” in this work.
